Laboratory results taken from publication PMC9352680, “A comprehensive thermodynamic model for RNA binding by the Saccharomyces cerevisiae Pumilio protein PUF4”.

T1: PUF4 RNA-binding domain (Saccharomyces cerevisiae, UniProt P25339 537-888)
T1 sequence: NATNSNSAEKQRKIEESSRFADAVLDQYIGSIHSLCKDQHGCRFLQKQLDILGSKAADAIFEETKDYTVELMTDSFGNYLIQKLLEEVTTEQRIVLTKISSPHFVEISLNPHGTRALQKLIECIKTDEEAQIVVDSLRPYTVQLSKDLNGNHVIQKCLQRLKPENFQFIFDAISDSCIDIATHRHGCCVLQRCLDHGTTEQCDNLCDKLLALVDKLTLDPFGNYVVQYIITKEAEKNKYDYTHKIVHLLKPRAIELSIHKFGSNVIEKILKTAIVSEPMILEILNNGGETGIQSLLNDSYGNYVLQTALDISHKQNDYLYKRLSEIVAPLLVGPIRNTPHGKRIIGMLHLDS


These binders were tested against T1, PUF4 RNA-binding domain (assay: Mg; RNA-MaP; 20 mM Na-HEPES pH 7.4, 30 mM KOAc, 0.75 mM MgCl2, 0.1% Tween-20, 5% glycerol, 0.1 mg/mL BSA, 2 mM DTT; 25 C; 0.0125-409.6 nM protein). Settings: tags: N-His6-TEV cleaved; C-SNAP kept, Cy3B-labelled; label: tethered on chip by stalled RNA polymerase.
UCUCUUCUGUAUAUAUAUAUCUCUU (ssRNA) [Id_i_S1_P3E.6_K3.2_C3.3_[T-3C]_[C-2T]_[T-1G]_H3.2_A3.1_F3.1_T3.2] showed a Kd of 8.87 nM. UCUCUUGCUAUAUUAUCUCUU (ssRNA) [Ib_S1_P4E.1_K4.1_C4.1_H4.1_[T1G]_[G2C]_A4.1_F4.1_T4.1] was tested, and the Kd was 481 nM. UCUCUUAGCUGUAUAUAUAUCUCUU (ssRNA) [Id_i_S1_P3E.5_K3.1_C3.3_[T-3A]_[C-2G]_[T-1C]_H3.1_A3.1_F3.1_T3.2] showed a Kd of 7.66 nM. UCUCUUUCACACUAUAUAUCUCUU (ssRNA) [Id_i_S1_P3E.4_K3.3_C3.2_[C-2T]_[T-1C]_H3.3_A3.1_F3.1_T3.2] was tested, and the Kd was > 2300 nM. With UCUCUUGGCACACUAUAUAUCUCUU (ssRNA) [Id_i_S1_P3E.7_K3.3_C3.3_[T-3G]_[C-2G]_[T-1C]_H3.3_A3.1_F3.1_T3.2] the Kd was 821 nM. Work on UCUCUUUGUAUAAUUUCUCUU (ssRNA) [Ib_S1_P4E.1_K4.1_C4.1_H4.1_A4.1_[T7A]_F4.1_[A9T]_T4.1] yielded a Kd of 8.41 nM. In the case of UCUCUUCGCUGUAUAUAUAUCUCUU (ssRNA) [Id_i_S1_P3E.5_K3.1_C3.3_[T-3C]_[C-2G]_[T-1C]_H3.1_A3.1_F3.1_T3.2], the Kd is reported as 8.53 nM. UCUCUUCAAUAUAUAUAUAUCUCUU (ssRNA) [Id_i_S1_P3E.6_K3.2_C3.3_[T-3C]_[C-2A]_[T-1A]_H3.2_A3.1_F3.1_T3.2] was tested, and the Kd was 777 nM. Work on UCUCUUCAAUGUAUAUAUAUCUCUU (ssRNA) [Id_i_S1_P3E.5_K3.1_C3.3_[T-3C]_[C-2A]_[T-1A]_H3.1_A3.1_F3.1_T3.2] yielded a Kd of 7.95 nM. Work on UCUCUUCACUAUAUAUAUAUCUCUU (ssRNA) [Id_i_S1_P3E.6_K3.2_C3.3_[T-3C]_[C-2A]_[T-1C]_H3.2_A3.1_F3.1_T3.2] yielded a Kd of 144 nM. For UCUCUUGUUAUAUUAUCUCUU (ssRNA) [Ib_S1_P4E.1_K4.1_C4.1_H4.1_[T1G]_[G2T]_A4.1_F4.1_T4.1], the Kd was 12.3 nM. In the case of UCUCUUUAACACUAUAUAUCUCUU (ssRNA) [Id_ii_S1_P3E.4_K3.3_C3.2_[C-2T]_[T-1A]_H3.3_A3.1_F3.1_T3.2], the Kd is reported as 2160 nM. For UCUCUUGUCUAUAUAUAUAUCUCUU (ssRNA) [Id_i_S1_P3E.6_K3.2_C3.3_[T-3G]_[C-2T]_[T-1C]_H3.2_A3.1_F3.1_T3.2], the Kd was 102 nM. Binder UCUCUUACACACUAUAUAUCUCUU (ssRNA) [Id_i_S1_P3E.4_K3.3_C3.2_[C-2A]_[T-1C]_H3.3_A3.1_F3.1_T3.2] has a Kd of 998 nM. With UCUCUUCUAUGUAUAUAUAUCUCUU (ssRNA) [Id_i_S1_P3E.5_K3.1_C3.3_[T-3C]_[C-2T]_[T-1A]_H3.1_A3.1_F3.1_T3.2] the Kd was 10.2 nM. UCUCUUAUCUAUAUAUAUAUCUCUU (ssRNA) [Id_i_S1_P3E.6_K3.2_C3.3_[T-3A]_[C-2T]_[T-1C]_H3.2_A3.1_F3.1_T3.2] was tested, and the Kd was 650 nM. In the case of UCUCUUAUCACACUAUAUAUCUCUU (ssRNA) [Id_i_S1_P3E.7_K3.3_C3.3_[T-3A]_[C-2T]_[T-1C]_H3.3_A3.1_F3.1_T3.2], the Kd is reported as 1520 nM. Work on UCUCUUAACACACUAUAUAUCUCUU (ssRNA) [Id_i_S1_P3E.7_K3.3_C3.3_[T-3A]_[C-2A]_[T-1C]_H3.3_A3.1_F3.1_T3.2] yielded a Kd of 2180 nM. UCUCUUGACUAUAUAUAUAUCUCUU (ssRNA) [Id_i_S1_P3E.6_K3.2_C3.3_[T-3G]_[C-2A]_[T-1C]_H3.2_A3.1_F3.1_T3.2] showed a Kd of 806 nM. UCUCUUCUCUGUAUAUAUAUCUCUU (ssRNA) [Id_i_S1_P3E.5_K3.1_C3.3_[T-3C]_[C-2T]_[T-1C]_H3.1_A3.1_F3.1_T3.2] showed a Kd of 4.39 nM. Work on UCUCUUCAAACACUAUAUAUCUCUU (ssRNA) [Id_i_S1_P3E.7_K3.3_C3.3_[T-3C]_[C-2A]_[T-1A]_H3.3_A3.1_F3.1_T3.2] yielded a Kd of 2040 nM. For UCUCUUAACUGUAUAUAUAUCUCUU (ssRNA) [Id_i_S1_P3E.5_K3.1_C3.3_[T-3A]_[C-2A]_[T-1C]_H3.1_A3.1_F3.1_T3.2], the Kd was 6.08 nM. UCUCUUUGUAUACUUUCUCUU (ssRNA) [Ic_S1_P4E.1_K4.1_C4.1_H4.1_A4.1_[T7C]_F4.1_[A9T]_T4.1] showed a Kd of 5.99 nM. With UCUCUUCCUAUAUUAUCUCUU (ssRNA) [Ib_S1_P4E.1_K4.1_C4.1_H4.1_[T1C]_[G2C]_A4.1_F4.1_T4.1] the Kd was 1290 nM. UCUCUUAAACACUAUAUAUCUCUU (ssRNA) [Id_i_S1_P3E.4_K3.3_C3.2_[C-2A]_[T-1A]_H3.3_A3.1_F3.1_T3.2] was tested, and the Kd was > 2300 nM. With UCUCUUAGACACUAUAUAUCUCUU (ssRNA) [Id_ii_S1_P3E.4_K3.3_C3.2_[C-2A]_[T-1G]_H3.3_A3.1_F3.1_T3.2] the Kd was > 2300 nM. For UCUCUUGGCUGUAUAUAUAUCUCUU (ssRNA) [Id_i_S1_P3E.5_K3.1_C3.3_[T-3G]_[C-2G]_[T-1C]_H3.1_A3.1_F3.1_T3.2], the Kd was 6.92 nM. UCUCUUGUCUGUAUAUAUAUCUCUU (ssRNA) [Id_i_S1_P3E.5_K3.1_C3.3_[T-3G]_[C-2T]_[T-1C]_H3.1_A3.1_F3.1_T3.2] showed a Kd of 4.63 nM. Work on UCUCUUAUCUGUAUAUAUAUCUCUU (ssRNA) [Id_i_S1_P3E.5_K3.1_C3.3_[T-3A]_[C-2T]_[T-1C]_H3.1_A3.1_F3.1_T3.2] yielded a Kd of 6.91 nM. For UCUCUUAGCACACUAUAUAUCUCUU (ssRNA) [Id_i_S1_P3E.7_K3.3_C3.3_[T-3A]_[C-2G]_[T-1C]_H3.3_A3.1_F3.1_T3.2], the Kd was > 2300 nM.
